Source: PMC2386288, “Kinetics and Ligand-Binding Preferences of Mycobacterium tuberculosis Thymidylate Synthases, ThyA and ThyX” (PLoS ONE, 2008)

Target: the molecule itself
Assay: SEC

B1: Histidine-tagged M. tuberculosis ThyA (thymidylate synthase) (enzyme)
chain: MSIVTPYEDLLRFVLETGTPKSDRTGTGTRSLFGQQMRYDLSAGFPLLTTKKVHFKSVAYELLWFLRGDSNIGWLHEHGVTIWDEWASDTGELGPIYGVQWRSWPAPSGEHIDQISAALDLLRTDPDSRRIIVSAWNVGEIERMALPPCHAFFQFYVADGRLSCQLYQRSADLFLGVPFNIASYALLTHMMAAQAGLSVGEFIWTGGDCHIYDNHVEQVRLQLSREPRPYPKLLLADRDSIFEYTYEDIVVKNYDPHPAIKAPVAV
notes: also called conventional thymidylate synthase
  stoichiometry N: 2
